According to patent publication US20260216242A1 (ALMAC DISCOVERY, published 2026):

T1: human ALPI (intestinal alkaline phosphatase) expressed on the surface of CHO cells (human, UniProt P09923 20-503)
T1 sequence (looked up): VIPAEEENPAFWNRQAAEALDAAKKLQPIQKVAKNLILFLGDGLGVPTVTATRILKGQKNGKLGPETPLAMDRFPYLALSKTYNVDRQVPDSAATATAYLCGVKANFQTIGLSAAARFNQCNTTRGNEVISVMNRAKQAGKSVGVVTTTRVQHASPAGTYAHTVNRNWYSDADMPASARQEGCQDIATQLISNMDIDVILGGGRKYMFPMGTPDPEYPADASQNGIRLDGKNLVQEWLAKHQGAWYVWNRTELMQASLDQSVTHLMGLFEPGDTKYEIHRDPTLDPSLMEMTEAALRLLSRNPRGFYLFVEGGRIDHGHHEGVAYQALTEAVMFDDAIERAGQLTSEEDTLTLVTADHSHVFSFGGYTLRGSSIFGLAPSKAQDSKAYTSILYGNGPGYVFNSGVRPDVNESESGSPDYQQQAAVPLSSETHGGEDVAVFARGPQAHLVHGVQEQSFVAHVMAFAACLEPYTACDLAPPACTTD

T2: human ALPL (tissue non-specific alkaline phosphatase) expressed on the surface of CHO cells (human, UniProt P05186 18-501)
T2 sequence (looked up): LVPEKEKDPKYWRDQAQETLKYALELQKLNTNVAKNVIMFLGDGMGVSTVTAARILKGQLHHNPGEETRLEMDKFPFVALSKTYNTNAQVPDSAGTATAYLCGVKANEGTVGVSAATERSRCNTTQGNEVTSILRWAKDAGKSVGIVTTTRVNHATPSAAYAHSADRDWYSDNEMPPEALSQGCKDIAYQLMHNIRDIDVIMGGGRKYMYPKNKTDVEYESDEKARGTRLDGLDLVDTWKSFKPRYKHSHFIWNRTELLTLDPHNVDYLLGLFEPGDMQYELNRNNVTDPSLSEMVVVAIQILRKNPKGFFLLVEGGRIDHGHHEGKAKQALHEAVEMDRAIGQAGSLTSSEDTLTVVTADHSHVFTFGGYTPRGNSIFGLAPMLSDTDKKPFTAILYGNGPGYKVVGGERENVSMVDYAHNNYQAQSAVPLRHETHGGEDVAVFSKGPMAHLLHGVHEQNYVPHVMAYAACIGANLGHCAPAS


Tests used:
[1] = biological target: T1, human ALPI (intestinal alkaline …); assay: cell-based or functional assay
[2] = biological target: T2, human ALPL (tissue non-specific …); assay: cell-based or functional assay
[3] = biological target: T3, human ALPP (alkaline phosphatase, placental type) expressed on the surface of CHO cells (human, UniProt P05187 23-506); assay: cell-based or functional assay
T3 sequence (P05187 23-506 limits assumed): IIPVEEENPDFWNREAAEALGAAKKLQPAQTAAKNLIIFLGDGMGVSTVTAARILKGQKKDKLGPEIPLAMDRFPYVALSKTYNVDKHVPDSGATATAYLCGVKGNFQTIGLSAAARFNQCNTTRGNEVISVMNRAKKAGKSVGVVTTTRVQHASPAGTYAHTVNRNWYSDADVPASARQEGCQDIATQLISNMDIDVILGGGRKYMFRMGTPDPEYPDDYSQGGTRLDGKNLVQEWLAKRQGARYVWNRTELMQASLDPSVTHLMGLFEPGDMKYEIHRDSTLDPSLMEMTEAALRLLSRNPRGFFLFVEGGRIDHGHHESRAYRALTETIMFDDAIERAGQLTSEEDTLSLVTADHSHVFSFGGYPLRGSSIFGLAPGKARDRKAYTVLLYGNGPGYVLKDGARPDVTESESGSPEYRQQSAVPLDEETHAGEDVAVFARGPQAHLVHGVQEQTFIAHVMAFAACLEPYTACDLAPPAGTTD

[4] = biological target: T1, human ALPI (intestinal alkaline …); assay: flow cytometry on CHO-ALPI cells
[5] = biological target: T4, human ALPPL2 (alkaline phosphatase, germ cell type) expressed on the surface of CHO cells (human, UniProt P10696 20-503); assay: flow cytometry on CHO-ALPPL2 cells, apparent KD (KDapp)
T4 construct: whole, on cells; The cell-surface form has none; also called CHO-ALPPL2; hALPPL2
T4 sequence (P10696 20-503): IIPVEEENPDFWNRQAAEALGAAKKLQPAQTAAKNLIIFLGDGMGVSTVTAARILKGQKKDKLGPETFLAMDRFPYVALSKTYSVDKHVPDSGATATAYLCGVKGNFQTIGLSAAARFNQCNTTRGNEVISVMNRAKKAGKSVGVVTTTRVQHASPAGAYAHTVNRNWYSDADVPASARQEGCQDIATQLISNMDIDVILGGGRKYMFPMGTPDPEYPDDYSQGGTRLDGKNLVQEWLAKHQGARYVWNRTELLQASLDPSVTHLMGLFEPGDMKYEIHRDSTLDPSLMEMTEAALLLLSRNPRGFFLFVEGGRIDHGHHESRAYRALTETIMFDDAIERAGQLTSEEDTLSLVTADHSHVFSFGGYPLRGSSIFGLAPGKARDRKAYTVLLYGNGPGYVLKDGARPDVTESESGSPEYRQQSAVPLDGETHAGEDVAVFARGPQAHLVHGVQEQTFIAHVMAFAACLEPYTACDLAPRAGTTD
Method in brief: (§1)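 Cell-surface binding to CHO cells stably transfected with human ALPP, ALPPL2, ALPI or ALPL; cells detached with 0.1% EDTA/PBS, incubated with biparatopic VHH-hFc drug conjugates over a concentration range for 1 hr on ice. Bound agent detected with FITC anti-human Ab (30 min, ice, dark) by flow cytometry; KDapp derived from binding.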

[6] = biological target: T2, human ALPL (tissue non-specific …); assay: flow cytometry, CHO-ALPL cells
[7] = biological target: T3, human ALPP (alkaline phosphatase, …); assay: flow cytometry on CHO-ALPP cells, apparent KD (KDapp)
Method in brief: as §1

[8] = biological target: T4, human ALPPL2 (alkaline phosphatase, …); assay: cell-based or functional assay
[9] = biological target: T1, human ALPI (intestinal alkaline …); assay: flow cytometry, CHO-ALPI cells

Row | Binder | IC50 at 96 h, cell-killing of CHO-ALPI cells [1] [nM] | IC50 at 96 h, cell-killing of CHO-ALPL cells [2] [nM] | IC50 at 96 h, cell-killing of CHO-ALPP cells [3] [nM] | MFI on CHO-ALPI cells at 350 nM as percent of MFI on CHO-ALPP cells (KDapp not-determinable) [4] [%] | Kd [5] [nM] | binding result [6] | Kd [7] [nM] | IC50 at 96 h, cell-killing of CHO-ALPPL2 cells [8] [nM] | binding result [9]
1 | D10 A06-hFc (S239/442C T366Y/Y407T), [G4S]3 linker, MC-vc-PAB-MMAE conjugate, #633 (Fc fusion, DAR 4, MC-vc-PAB-MMAE on Cys of S239C and S442C (EU numbering), Biparatopic knob-into-hole VHH-hFc heterodimer, DAR 4; The assignment of T366Y to the first named VHH and Y407T to the second follows the order of the name; No paragraph spells out this pair; also called D10-A06 hFc-vcPAB-MMAE; D10-A06-hFc-vc-MMAE) chain 1: QVQLVESGGGLVQPGGSLRLSCAASGSIFSVNTMGWYRQAPGKQRDLVAVATSGGTIHYADSVKGRFTISRDNAKNTVYLQMNSLKPEDTAVYYCNLVVPYGMIAGDHDYWGQGTKVTVSSGGGGSGGGGSGGGGSEPKSSDKTHTCPPCPAPELLGGPCVFLFPPKPKDTLMISRTPEVTCVVVDVSHEDPEVKFNWYVDGVEVHNAKTKPREEQYNSTYRVVSVLTVLHQDWLNGKEYKCKVSNKALPAPIEKTISKAKGQPREPQVYTLPPSRDELTKNQVSLYCLVKGFYPSDIAVEWESNGQPENNYKTTPPVLDSDGSFFLYSKLTVDKSRWQQGNVFSCSVMHEALHNHYTQKSLCLSPGK chain 2: QVHLVESGGGLVQAGGSLRLSCAASGRTFLSMGWFRQAPGKEREFVAAISWTGGSTGYADSVKGRFTISRESDKETMYLQMNSLKPEDTAVYYCAARGDVYYGGDDATRYKYWGQGTQVTVSSGGGGSGGGGSGGGGSEPKSSDKTHTCPPCPAPELLGGPCVFLFPPKPKDTLMISRTPEVTCVVVDVSHEDPEVKFNWYVDGVEVHNAKTKPREEQYNSTYRVVSVLTVLHQDWLNGKEYKCKVSNKALPAPIEKTISKAKGQPREPQVYTLPPSRDELTKNQVSLTCLVKGFYPSDIAVEWESNGQPENNYKTTPPVLDSDGSFFLTSKLTVDKSRWQQGNVFSCSVMHEALHNHYTQKSLCLSPGK | > 1000 | > 1000 | 10.1 | ≤ 1 | 4.4 | no binding (tested: 350 nM (highest concentration)) | 7.6 | – | –
2 | D10 E06-hFc (S239/442C T366Y/Y407T), [G4S]3 linker, MC-vc-PAB-MMAE conjugate, #634 (Fc fusion, DAR 4, MC-vc-PAB-MMAE on Cys of S239C and S442C (EU numbering), Biparatopic knob-into-hole VHH-hFc heterodimer, DAR 4; also called D10-E06 hFc-vcPAB-MMAE; D10-E06 hFc-vc-MMAE) chain 1: QVQLVESGGGLVQPGGSLRLSCAASGSIFSVNTMGWYRQAPGKQRDLVAVATSGGTIHYADSVKGRFTISRDNAKNTVYLQMNSLKPEDTAVYYCNLVVPYGMIAGDHDYWGQGTKVTVSSGGGGSGGGGSGGGGSEPKSSDKTHTCPPCPAPELLGGPCVFLFPPKPKDTLMISRTPEVTCVVVDVSHEDPEVKFNWYVDGVEVHNAKTKPREEQYNSTYRVVSVLTVLHQDWLNGKEYKCKVSNKALPAPIEKTISKAKGQPREPQVYTLPPSRDELTKNQVSLYCLVKGFYPSDIAVEWESNGQPENNYKTTPPVLDSDGSFFLYSKLTVDKSRWQQGNVFSCSVMHEALHNHYTQKSLCLSPGK chain 2: QVHLVESGGGLVQAGGSLRLSCAASRRSFSEYAMGWFRQAPGKEREFVAAIGWSGVIEYADSVKGRFTISRDNAKDTVYLQMNSLKPEDTAVYYCAAGLGIRVVSQTPAYWGQGTQVTVSSGGGGSGGGGSGGGGSEPKSSDKTHTCPPCPAPELLGGPCVFLFPPKPKDTLMISRTPEVTCVVVDVSHEDPEVKFNWYVDGVEVHNAKTKPREEQYNSTYRVVSVLTVLHQDWLNGKEYKCKVSNKALPAPIEKTISKAKGQPREPQVYTLPPSRDELTKNQVSLTCLVKGFYPSDIAVEWESNGQPENNYKTTPPVLDSDGSFFLTSKLTVDKSRWQQGNVFSCSVMHEALHNHYTQKSLCLSPGK | > 1000 | > 1000 | 9.2 | – | 5.9 | no binding (tested: 350 nM (highest concentration)) | 8.3 | 9.1 | no binding (tested: 350 nM (highest concentration))
3 | D10 E06-hFc (S239/442C T366Y/Y407T), [G4S]1 linker, MC-vc-PAB-MMAE conjugate, #677 (Fc fusion, DAR 4, MC-vc-PAB-MMAE on Cys of S239C and S442C (EU numbering), Biparatopic knob-into-hole VHH-hFc heterodimer, DAR 4; also called D10-E06-hFc-vcPAB-MMAE; D10-E06 hFc-vc-MMAE) chain 1: QVQLVESGGGLVQPGGSLRLSCAASGSIFSVNTMGWYRQAPGKQRDLVAVATSGGTIHYADSVKGRFTISRDNAKNTVYLQMNSLKPEDTAVYYCNLVVPYGMIAGDHDYWGQGTKVTVSSGGGGSEPKSSDKTHTCPPCPAPELLGGPCVFLFPPKPKDTLMISRTPEVTCVVVDVSHEDPEVKFNWYVDGVEVHNAKTKPREEQYNSTYRVVSVLTVLHQDWLNGKEYKCKVSNKALPAPIEKTISKAKGQPREPQVYTLPPSRDELTKNQVSLYCLVKGFYPSDIAVEWESNGQPENNYKTTPPVLDSDGSFFLYSKLTVDKSRWQQGNVFSCSVMHEALHNHYTQKSLCLSPGK chain 2: QVHLVESGGGLVQAGGSLRLSCAASRRSFSEYAMGWFRQAPGKEREFVAAIGWSGVIEYADSVKGRFTISRDNAKDTVYLQMNSLKPEDTAVYYCAAGLGIRVVSQTPAYWGQGTQVTVSSGGGGSEPKSSDKTHTCPPCPAPELLGGPCVFLFPPKPKDTLMISRTPEVTCVVVDVSHEDPEVKFNWYVDGVEVHNAKTKPREEQYNSTYRVVSVLTVLHQDWLNGKEYKCKVSNKALPAPIEKTISKAKGQPREPQVYTLPPSRDELTKNQVSLTCLVKGFYPSDIAVEWESNGQPENNYKTTPPVLDSDGSFFLTSKLTVDKSRWQQGNVFSCSVMHEALHNHYTQKSLCLSPGK | > 1000 | > 1000 | 3.3 | – | 5.5 | no binding (tested: 350 nM (highest concentration)) | 9.4 | 21.1 | no binding (tested: 350 nM (highest concentration))
